Experimental findings from publication PMC4765800, “Transcription factor StWRKY1 regulates phenylpropanoid metabolites conferring late blight resistance in potato” are described below.

The target of the data set is StWRKY1 (Solanum tuberosum, UniProt Q9LEC7 1-172). Nature of the data set: EMSA; shift inhibited by excess unlabelled competitor; poly(dI-dC); EMSA: 20 ul with kit binding buffer (LightShift), 1 ul each of 1 ug/ul poly(dI-dC), 50% glycerol, 1% NP-40, 1 M KCl, 100 mM MgCl2, 200 mM EDTA; 3 ug protein, 20 fmol probe; 25 C, 20 min; pH not stated. The note with it: protein: recombinant; label: 3' biotin; blunt. On the technique in general: Mobility shift assays separate free from complexed probe on a gel.
StWRKY1, sequence (Q9LEC7 entry or part of it): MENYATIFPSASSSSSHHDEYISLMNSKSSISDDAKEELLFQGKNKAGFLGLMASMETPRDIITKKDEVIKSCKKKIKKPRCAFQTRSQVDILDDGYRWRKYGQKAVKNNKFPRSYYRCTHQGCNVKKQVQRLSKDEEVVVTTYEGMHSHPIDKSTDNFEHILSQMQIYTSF

B1: THT promoter W1-box probe (dsDNA)
DNA 1: TCGTCAGAGTTGACCTCCACCAACCA
DNA 2: TGGTTGGTGGAGGTCAACTCTGACGA
For B1, the binding result is “binds”.
